Measurements as given in publication PMC5625722.
Substitutions are numbered along the chain they refer to. Names may count otherwise.

B1: N-terminal fragment of Mus81 (1-319) (domain or fragment)
chain: MELSSNLKDLYIEWLQELVDGLTPKQEQLKIAYEKAKRNLQNAEGSFYYPTDLKKVKGIGNTIIKRLDTKLRNYCKIHHISPVEAPSLTQTSSTRPPKRTTTALRSIVNSCENDKNEAPEEKGTKKRKTRKYIPKKRSGGYAILLSLLELNAIPRGVSKEQIIEVAGKYSDHCMTPNFSTKEFYGAWSSIAALKKHSLVLEEGRPKRYSLTEEGVELTKSLKTADGISFPKENEEPNEYSVTRNESSEFTANLTDLRGEYGKEEEPCDINNTSFMLDITFQDLSTPQRLQNNVFKNDRLNSQTNISSHKLEEVSDDQTV
B2: Mus81 (1-319) E44Q mutant (domain or fragment)
chain: B1 chain with E44Q

Biological target: Proliferating cell nuclear antigen (PCNA), wild type (UniProt P15873)
Assay: MST; fluorescently labeled PCNA (22 nM, RED-NHS) constant, Mus81 (1-319) fragment 1.3-5500 nM; T buffer with 0.05% Tween-20 and 150 mM KCl; 25 °C; Monolith NT.115; apparent Kd

Row | Binder | Kd
1 | B1 | 0.253 µM
2 | B2 | 20.5 µM
